From the DeepSol protein solubility set come the findings set out here.

This data set is described as follows: soluble on expression in E. coli; label from the status in PepcDB or PDB records.
With “MSLDNFIAGLPKLELHLHIEGSLEPELMFALGQRNGVALPWPDVASVRAAYEFDCLQSFLDLYYLGASVLITEQDFFDLTWAYLERCAADKVVHVEIFFDPQTHTARGVPFATVLGGIERALQRGEWEFGISWRLIMSFLRHLSEEDAFATLAEATPFLSRIHGIGLDSGEKGNPPSKFARVFARCRELGLPVVAHAGEEGPADYIWQAIRELEVRRIDHGVRCVDDPDLLRYLADTRLPLTVCPLSNTRLKVFDQMAHHNVLALLEQGLCVTINSDDPAYFGGYMNANFHALAHELGASMNQLCRLSLNAVEASWLSLADKARLTREGHHHHHH”, the “soluble on expression in E. coli” value is given as “soluble”.
Consider “FNDEGEMHLPGQYDMLKARLAKNPGAELLIFIHGWHHNAAPTDDNFVAFQRFHRQMAKTNPGLIGLYIGWRGDQYDPLWLDGSDDPESRVEALDFPTILTSKQVARRVGEHGVRKLLSSLDELHRQGTLGRYILVGHSLGGVVALHA”, for which the “soluble on expression in E. coli” value is “not soluble”.
As for “AHHHHHHGSEIDKGLAKFGDSLINFLYSLALTEFLGKPTGDRVPNASLAIALELTGLSKNLRRVDKHAKGDYAEALIAKAWLMGLISEREAVEIIKKNLYPEVLDFSKKKEAIGRALAPLLVIISERLYSSQV”, the “soluble on expression in E. coli” value is given as “soluble”.
Consider “MARASSTKARKQRHDPLLKDLDAAQGTLKKINKKKLAQNDAANHDAANEEDGYIDSKASRKILQLAKEQQDEIEGEELAESERNKQFEARFTTMSYDDEDEDEDEDEEAFGEDISDFEPEGDYKEEEEIVEIDEEDAAMFEQYFKKSDDFNSLSGSYNLADKIMASIREKESQVEDMQDDEPLANEQNTSRGNISSGLKSGEGVALPEKVIKAYTTVGSILKTWTHGKLPKLFKVIPSLRNWQDVIYVTNPEEWSPHVVYEATKLFVSNLTAKESQKFINLILLERFRDNIETSEDHSLNYHIYRAVKKSLYKPSAFFKGFLFPLVETGCNVREATIAGSVLAKVSVPALHSSAALSYLLRLPFSPPTTVFIKILLDKKYALPYQTVDDCVYYFMRFRILDDGSNGEDATRVLPVIWHKAFLTFAQRYKNDITQDQRDFLLETVRQRGHKDIGPEIRRELLAGASREFVDPQEANDDLMIDVN”, for which the “soluble on expression in E. coli” value is listed as “soluble”.
Under “GANNDMPVEQILEAELAVDPKIDTYIDAQKDPVTNICQAADKQLFTLVEWAKRIPHFTELPLEDQVILLRAGWNELLIAGFSHRSIMAKDGILLATGLHVHRSSAHQAGVGTIFDRVLTELVAKMRDMKMDKTELGCLRAVVLFNPDAKGLTAVQEVEQLREKVYASLEEYTKSRYPEEPGRFAKLLLRLPALRSIGLKCLEHLFFFKLIGDQPIDTFLMEMLENPSPAT” stands “soluble”.
In the case of “MLSTGLDELVYRSNLIGSDRAVCNWGGGNTSMKTVEKDFRGREIAVMWVKGSGSDLATMGAKNFTGLNLEDIRPLIEREEMSDEEMVEYLGHCMIDRNHPRPSIETLLHAFLPFKHVDHTHPDAIISICCADNGKEIAKNLFGDRFVWVPYVRPGFSLSKLIAEGVQKNPHAELVLMEKHGLVVWGETAKESYDRTISVINEAEAYIRSRINESVIFGGGKLEHHHHHH” it was “not soluble”; in that of “MKTNSEELTVFVQVVESGSFSRAAEQLAMANSAVSRIVKRLEEKLGVNLLNRTTRQLSLTEEGAQYFRRAQRILQEMAAAETEMLAVHEIPQGVLSVDSAMPMVLHLLAPLAAKFNERYPHIRLSLVSSEGYINLIERKVDIALRAGELDDSGLRARHLFDSRFRVIASPEYLAKHGTPQSTEELAGHQCLGFTEPGSLNTWAVLDAQGNPYKISPHFTASSGEILRSLCLSGCGIVCLSDFLVDNDIAEGKLIPLLAEQTSDKTHPFNAVYYSDKAVNLRLRVFLDFLVEELGNNLCGKHHHHHH”, “soluble”.
Take “GVVIREALSSSNAVPAIDFDRKELIDIPAYQGPGKNVVRPPVDLDPSYNPFKETGLTEPIRSSRRQSPDMGWNELFKQFEAKRDAEKMAEPPIRSEELFASTDFTPSAVSATPSTDMLCYVHRGRYLVTTLSRGLALVDFHRAHKRILYDRFMADESRRHIEQQQLLFPELLEFNPSDASAVKAAVDELQSVGFDLSPLGVSSYSLLAAPVQIIDCAADVVRDVIHTTLEDGRSSHEQMLELIATQIAEYQAIPCGKTPTAEEASDLLAELFASNDSTYTPDGKLIVSIIEEADIARRFE”: the “soluble on expression in E. coli” value is given as “not soluble”.
With “MSLKKIIITGALGQIGTELVIKCRERYGTENVLATDIRKPEPHSPVKNGPFEILDVTDRNRLFETVRYFNADTLMHMAALLSATAEKKPLVAWDLNMGGLINTLEAARRYQLKYFTPSSIGAFGISTPKVNTPQLTIQQPTTMYGINKVTGELLCQYYYVKFGVDTRSVRFPGLISHVKEPGGGITDYAVDMYFKAVRKGHYTSYINRYTYMDMMYMEDAIDAIIKLMEEDSVKLKTRNGYNLSAMSIEPEMLKQAIQVYYPDFTLDYDIDLERQDIALSWPDSIDTSCAQEEWGFDPKYDLPTMTKVMLEAIEKKQKEEGHHHHHH”, the “soluble on expression in E. coli” value was “soluble”.
Under “MGSDKIHHHHHHMSVMETTHRQYRQTLIFGLIRIVEELFPQEEIKIQYSILDGIYCELENSPLSPREVAQIEEKLHHWLESKPKIMSCAEEDGFFHTKVNHIFVKSLYPAMHPADTYYPFTLIFYHPGFILLFSNPEHPCELPNFVPPEKLAATFLESQRWVENLHLDKVGSINLNIRKGKTTELISLAEALHEKKISLIADRILEQRRNLRIILISGPSSSGKTTFAQRLSTQLQVNGIRPIALSLDNYFCDREHTPLDEYGQYDFEALEALDLPLLNQHVKALIHGEEIECPIFDFVAGRRQPEGIRMKLEPDEILVMEGIHALNPRLLPSLERSHLFKIYISALFQPNIDTHNRISTTDVRLIRRLVRDDKYRGINPEKTLNQWSSVRRGENNNIFPYQEEADVMFNSSLLYELNALKAYAEPLLISIPKDHPYYATASHLLRVLYHFEILDIAKVPFNSILREFIGGGIY” stands “not soluble”; under “MGSDKIHHHHHHMKSVTVADLKADPIVQGYIEVGNRNLAAIGFTEHGLRHVGLVSNIAYNILEKLGYSERECELAAVAAYLHDIGNVINRSGHAQTGALLSAHILERHAMAPEEIAIVIGAIGNHDESDGNPVSNISAALILADKSDVHRSRVRNQDPATFDIHDRVNYAVEHSFLRVYPKDRVALEITINTEICPVMDYFEIFLARMLLCRRAASFLDTVFELKINEVKLL”, “not soluble”; under “MCDIGNLTQYRQAQEDILRGRVKVRVVGQDKGGGVVMGEGVEIAPGARIEGPVLIGGACHIATGAVVGPFTVLGPYTRVEEGATVRRSVLWDNVYTGEGANVRGLEHHHHHH”, “not soluble”.
Under “MAQLFFKYGAMNSGKTIEILKVAHNYEEQDKPVVLMTSGLDTRDGVGKVSSRIGLRRDAIPIFEETNVFDLINDLSYKPFCVLVDECQFLNKHHVIEFARIVDELDIPVMAFGLKNDFRNELFEGSKYLLLYADKLEELKTICWFCHKKATMNLHYIDGNPVYEGDQVQIGGNEAYYPVCRKHYFHPKTVNEEQ” stands “not soluble”; under “MKVAEIIVVEGKDDTRRIQEVVAADTIETIGSAINDEILTQIEHAQETRGVIIFTDPDYSGEKIRKTIMEVVPDAKHAFLSRKVAVPKKNGGSLGVEHASDEAIIEALKKVVTPVQADEDYQEIPRQTLVEYGLIAGANAKKYRELLGDDLRIGYTNSKQLVKRLSMFRITEAELKESMTRILKELANEE”, “not soluble”; under “MEELQDDYEDMMEENLEQEEYEDPDIPESQMEEPAAHDTEATATDYHTTSHPGTHKVYVELQELVMDEKNQELRWMEAARWVQLEENLGENGAWGRPHLSHLTFWSLLELRRVFTKGTVLLDLQETSLAGVANQLLDRFIFEDQIRPQDREELLRALLLKHSHAGELEALGGVKPAVLTRSGDPSQPLLPQHSSLETQLFCEQGDGGTEGHSPSGILEKIPPDSEATLVLVGRADFLEQPVLGFVRLQEAAELEAVELPVPIRFLFVLLGPEAPHIDYTQLGRAAATLMSERVFRIDAYMAQSRGELLHSLEGFLDCSLVLPPTDAPSEQALLSLVPVQRELLRRRYQSSPAKPDSSFYKGLDLNGGPDDPLQQTGQLF”, “soluble”.
